For data set [1], the target named is T1, BRB1 tyrosine kinase substrate peptide.
T1 chain: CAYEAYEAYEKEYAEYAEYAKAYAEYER

B1: CSK (protein)
chain: MSAIQAAWPSGTECIAKYNFHGTAEQDLPFCKGDVLTIVAVTKDPNWYKAKNKVGREGIIPANYVQKREGVKAGTKLSLMPWFHGKITREQAERLLYPPETGLFLVRESTNYPGDYTLCVSCDGKVEHYRIMYHASKLSIDEEVYFENLMQLVEHYTSDADGLCTRLIKPKVMEGTVAAQDEFYRSGWALNMKELKLLQTIGKGEFGDVMLGDYRGNKVAVKCIKNDATAQAFLAEASVMTQLRHSNLVQLLGVIVEEKGGLYIVTEYMAKGSLVDYLRSRGRSVLGGDCLLKFSLDVCEAMEYLEGNNFVHRDLAARNVLVSEDNVAKVSDFGLTKEASSTQDTGKLPVKWTAPEALREKKFSTKSDVWSFGILLWEIYSFGRVPYPRIPLKDVVPRVEKGYKMDAPDGCPPAVYEVMKNCWHLDAAMRPSFLQLREQLEHIKTHELHL
As to B1, the Signal to Noise Ratio with BRB1 Peptide (TR-FRET kinase assay; kinase 20 nM) in data set [1] worked out at 27.2.

B2: BTK (protein)
chain: AAVILESIFLKRSQQKKKTSPLNFKKRLFLLTVHKLSYYEYDFERGRRGSKKGSIDVEKITCVETVVPEKNPPPERQIPRRGEESSEMEQISIIERFPYPFQVVYDEGPLYVFSPTEELRKRWIHQLKNVIRYNSDLVQKYHPCFWIDGQYLCCSQTAKNAMGCQILENRNGSLKPGSSHRKTKKPLPPTPEEDQILKKPLPPEPAAAPVSTSELKKVVALYDYMPMNANDLQLRKGDEYFILEESNLPWWRARDKNGQEGYIPSNYVTEAEDSIEMYEWYSKHMTRSQAEQLLKQEGKEGGFIVRDSSKAGKYTVSVFAKSTGDPQGVIRHYVVCSTPQSQYYLAEKHLFSTIPELINYHQHNSAGLISRLKYPVSQQNKNAPSTAGLGYGSWEIDPKDLTFLKELGTGQFGVVKYGKWRGQYDVAIKMIKEGSMSEDEFIEEAKVMMNLSHEKLVQLYGVCTKQRPIFIITEYMANGCLLNYLREMRHRFQTQQLLEMCKDVCEAMEYLESKQFLHRDLAARNCLVNDQGVVKVSDFGLSRYVLDDEYTSSVGSKFPVRWSPPEVLMYSKFSSKSDIWAFGVLMWEIYSLGKMPYERFTNSETAEHIAQGLRLYRPHLASEKVYTIMYSCWHEKADERPTFKILLSNILDVMDEES
Turning to B2, the Signal to Noise ratio with BRB1 Peptide (TR-FRET kinase assay; kinase 0.25 nM) in data set [1] amounted to 6.8.

B3: EphA4 (protein)
chain: SRRRSKYSKAKQEADEEKHLNQGVRTYVDPFTYEDPNQAVREFAKEIDASCIKIEKVIGVGEFGEVCSGRLKVPGKREICVAIKTLKAGYTDKQRRDFLSEASIMGQFDHPNIIHLEGVVTKCKPVMIITEYMENGSLDAFLRKNDGRFTVIQLVGMLRGIGSGMKYLSDMSYVHRDLAARNILVNSNLVCKVSDFGMSRVLEDDPEAAYTTRGGKIPIRWTAPEAIAYRKFTSASDVWSYGIVMWEVMSYGERPYWDMSNQDVIKAIEEGYRLPPPMDCPIALHQLMLDCWQKERSDRPKFGQIVNMLDKLIRNPNSLKRTGTESSRPNTALLDPSSPEFSAVVSVGDWLQAIKMDRYKDNFTAAGYTTLEAVVHVNQEDLARIGITAITHQNKILSSVQAMRTQMQQMHGRMVPV
For B3, in the data set with poly-EAY, the Average Signal at 665 nm (TR-FRET kinase assay; kinase 2 nM, read 1 h after adding Eu-PT66 antibody) came to 110000; the Average Signal at 665 nm (TR-FRET kinase assay; kinase 2 nM, read 18 h after adding Eu-PT66 antibody) was determined as 51400; the Average Signal at 665 nm (TR-FRET kinase assay; kinase 2 nM, read 24 h after adding Eu-PT66 antibody) turned out to be 45800. In data set [1], the Average Signal at 665 nm (TR-FRET kinase assay; kinase 2 nM, read 1 h after adding Eu-PT66 antibody) was 134000; the Average Signal at 665 nm (TR-FRET kinase assay; kinase 2 nM, read 18 h after adding Eu-PT66 antibody) is 117000; the Average Signal at 665 nm (TR-FRET kinase assay; kinase 2 nM, read 24 h after adding Eu-PT66 antibody) is 116000; the Signal to Noise ratio with BRB1 Peptide (TR-FRET kinase assay; kinase 0.5 nM) turned out to be 31.5. In the data set with poly-EY, this protein had an Average Signal at 665 nm (TR-FRET kinase assay; kinase 2 nM, read 1 h after adding Eu-PT66 antibody) of 89000; an Average Signal at 665 nm (TR-FRET kinase assay; kinase 2 nM, read 18 h after adding Eu-PT66 antibody) of 35000; an Average Signal at 665 nm (TR-FRET kinase assay; kinase 2 nM, read 24 h after adding Eu-PT66 antibody) of 30100.

The values are drawn from patent US20100015650.
